Experimental data reported in the Immune Epitope Database (IEDB).

Legend:
HLA-A*68:02 [1] = experiment: IEDB peptide-MHC binding, purified MHC/competitive/radioactivity; ≥ and ≤ were set here for values at or beyond the usual limits of such assays
HLA-A*02:01 [2] = experiment: as above
HLA-A*02:02 [3] = experiment: as above
HLA-A*02:06 [4] = experiment: as above
HLA-A*02:03 [5] = experiment: IEDB peptide-MHC binding, cellular MHC/competitive/fluorescence; ≥ and ≤ were set here for values at or beyond the usual limits of such assays
HLA-A*02:01 [6] = experiment: as above
HLA-A*02:03 [7] = experiment: IEDB peptide-MHC binding, purified MHC/competitive/radioactivity; ≥ and ≤ were set here for values at or beyond the usual limits of such assays
HLA-A*68:02 [8] = experiment: IEDB peptide-MHC binding, cellular MHC/competitive/fluorescence; ≥ and ≤ were set here for values at or beyond the usual limits of such assays
HLA-A*02:02 [9] = experiment: as above
HLA-A*02:06 [10] = experiment: as above
[11] = source organism: Vaccinia virus WR
[12] = source organism: Mammarenavirus whitewaterense
[13] = source organism: Influenza A virus
[14] = source organism: Mammarenavirus guanaritoense

Sequence | IC50 (HLA-A*68:02 [1]; [11]) | IC50 (HLA-A*02:02 [3]; [11]) | IC50 (HLA-A*02:06 [4]; [11]) | IC50 (HLA-A*02:03 [5]; [11]) | IC50 (HLA-A*02:01 [6]; [11]) | IC50 (HLA-A*02:03 [7]; [11]) | IC50 (HLA-A*68:02 [8]; [11]) | IC50 (HLA-A*02:02 [9]; [11]) | IC50 (HLA-A*02:06 [10]; [11]) | other results
TIILNKIVQL | 2.67 µM | 1.76 µM | 0.03 µM | 49.3 µM |  |  |  |  |  | IC50 (HLA-A*02:01 [2]; [11]): 0.086 µM
DISSFYWSL | 0.028 µM | 0.391 µM | 3.97 µM | 6.87 µM | 8.51 µM |  |  |  |  | 
IAMLKSKNI |  |  |  |  | 46.7 µM | 0.846 µM | 5.87 µM | 37.7 µM | 10.6 µM | 
EILRNYLRL |  |  |  |  | 10.5 µM | 2.09 µM | 9.23 µM | 14 µM | 12.9 µM | 
LMSDNPKAST |  |  |  |  | 8.98 µM | 0.938 µM | ≥ 70 µM | 8.88 µM | 47.4 µM | 
IIELPYVGDT |  |  |  |  | 46.8 µM | 4.42 µM | ≥ 70 µM | 13.7 µM | 17 µM | 
LTHFNNNENV | 0.011 µM | 0.907 µM | 0.996 µM | 7.27 µM | 6.59 µM |  |  |  |  | 
WIKNLETYT |  |  |  |  | 49.5 µM | 0.637 µM | ≥ 70 µM | 18.3 µM | 8.2 µM | 
TTTFITVLT | 0.033 µM | 2.46 µM | 1.09 µM | 8.59 µM |  |  |  |  |  | IC50 (HLA-A*02:01 [2]; [11]): 2.32 µM
ILSEKRKDTI |  |  |  |  | ≥ 70 µM | 0.541 µM | ≥ 70 µM | 44 µM | ≥ 70 µM | 
DIPTFNSLNT | 0.9 µM | 2.02 µM | 0.045 µM | 16.6 µM | 23 µM |  |  |  |  | 
IASGQRCHFI | 4.22 µM | 0.526 µM | 0.256 µM | 8.32 µM | 18.4 µM |  |  |  |  | 
DIKYISRDEL | 0.321 µM | 2.55 µM | 2.06 µM | 9.58 µM |  |  |  |  |  | IC50 (HLA-A*02:01 [2]; [11]): 3.57 µM
YAVLSEYETM | 4.16 µM | 0.157 µM | 1.21 µM | 9.63 µM | 5.51 µM |  |  |  |  | 
YAVLSEYET | 0.246 µM | 1.78 µM | 1.33 µM | 35.1 µM | 37.2 µM |  |  |  |  | 
VCFWSTLFYV |  |  |  |  |  |  |  |  |  | IC50 (HLA-A*68:02 [1]; [12]): 0.525 µM; IC50 (HLA-A*02:01 [2]; [12]): 0.904 µM; IC50 (HLA-A*02:02 [3]; [12]): 0.349 µM; IC50 (HLA-A*02:06 [4]; [12]): 1.13 µM; IC50 (HLA-A*02:03 [5]; [12]): 7.02 µM
GILIYDDNI |  |  |  |  | 11.3 µM | 1.7 µM | 33.5 µM | 11.7 µM | 13.3 µM | 

Sequence | IC50 (HLA-A*68:02 [1]; [11]) | IC50 (HLA-A*02:02 [3]; [11]) | IC50 (HLA-A*02:06 [4]; [11]) | IC50 (HLA-A*02:03 [5]; [11]) | IC50 (HLA-A*02:01 [6]; [11]) | IC50 (HLA-A*02:03 [7]; [11]) | IC50 (HLA-A*68:02 [8]; [11]) | IC50 (HLA-A*02:02 [9]; [11]) | IC50 (HLA-A*02:06 [10]; [11]) | other results
CTMERTNDLT | 0.0087 µM | 4.05 µM | 1.01 µM | 16.1 µM | 18.6 µM |  |  |  |  | 
SVDVDIYDA | 0.345 µM | 1.2 µM | 0.953 µM | 11.9 µM | 13.3 µM |  |  |  |  | 
EIVSHLRAST |  |  |  |  | ≥ 70 µM | 2.81 µM | 6.33 µM | 5.15 µM | 12.6 µM | 
ITNILGGVL |  |  |  |  | ≥ 70 µM | 2.44 µM | 9.24 µM | 7.38 µM | 32.5 µM | 
NAVTTNNLL | 4 µM | 1.85 µM | 0.202 µM | 24.9 µM |  |  |  |  |  | 
CAVIPFDDIV | 0.137 µM | 2.92 µM | 0.184 µM | 7.42 µM |  |  |  |  |  | IC50 (HLA-A*02:01 [2]; [11]): 1.09 µM
AIRGQYSGFV |  |  |  |  |  |  |  |  |  | IC50 (HLA-A*02:03 [7]; [13]): 0.092 µM; IC50 (HLA-A*68:02 [8]; [13]): 18.4 µM; IC50 (HLA-A*02:01 [6]; [13]): 12.9 µM; IC50 (HLA-A*02:02 [9]; [13]): 6.28 µM; IC50 (HLA-A*02:06 [10]; [13]): 42.8 µM
MVEYLENQL | 0.591 µM | 0.343 µM | 3.96 µM | 6.46 µM | 12 µM |  |  |  |  | 
KTKISVEKI |  |  |  |  | 26.9 µM | 0.112 µM | ≥ 70 µM | 7.6 µM | 10.7 µM | 
SMYTRLRQDT |  |  |  |  | 32.9 µM | 1.14 µM | ≥ 70 µM | 6.56 µM | 42 µM | 
FLKVPAQNA |  |  |  |  |  |  |  |  |  | IC50 (HLA-A*02:03 [7]; [13]): 0.838 µM; IC50 (HLA-A*68:02 [8]; [13]): 29 µM; IC50 (HLA-A*02:01 [6]; [13]): 11.3 µM; IC50 (HLA-A*02:02 [9]; [13]): 6.66 µM; IC50 (HLA-A*02:06 [10]; [13]): ≥ 70 µM
RTRLYDYFT |  |  |  |  | 49.5 µM | 3.05 µM | 27.2 µM | 7.1 µM | 48.7 µM | 
EQYTCNKPYT |  |  |  |  | ≥ 70 µM | 3.01 µM | 20.4 µM | 14 µM | 45.7 µM | 
AAAKTPVIVV |  |  |  |  | 44.3 µM | 1.52 µM | 5.25 µM | 8.04 µM | 13.4 µM | 
LTSVDIETA | 1.24 µM | 4.92 µM | 0.311 µM | 11.5 µM | 24 µM |  |  |  |  | 
TNAEFTFQL |  |  |  |  |  |  |  |  |  | IC50 (HLA-A*68:02 [1]; [14]): 0.0053 µM; IC50 (HLA-A*02:02 [3]; [14]): 0.404 µM; IC50 (HLA-A*02:06 [4]; [14]): 3.62 µM; IC50 (HLA-A*02:01 [6]; [14]): 5.02 µM; IC50 (HLA-A*02:03 [5]; [14]): 15.1 µM
